Measured values taken from US20120225828A1 (PALATIN TECHNOLOGIES, published 2012).
Bridge positions count the residues as written; N and C are the ends. Square brackets hold non-standard residues; d marks the D form. dPhe(3-Cl) = N[C@H](Cc1cccc(Cl)c1)C(=O)O; dPhe(4-Cl) = N[C@H](Cc1ccc(Cl)cc1)C(=O)O; dPhe(4-Me) = Cc1ccc(C[C@@H](N)C(=O)O)cc1; dPhe(2-Cl) = N[C@H](Cc1ccccc1Cl)C(=O)O; dPhe(4-F) = N[C@H](Cc1ccc(F)cc1)C(=O)O; 1Nal = N[C@@H](Cc1cccc2ccccc12)C(=O)O; 2Nal = N[C@@H](Cc1ccc2ccccc2c1)C(=O)O; d1Nal = N[C@H](Cc1cccc2ccccc12)C(=O)O; d2Nal = N[C@H](Cc1ccc2ccccc2c1)C(=O)O; dPhe(2-F) = N[C@H](Cc1ccccc1F)C(=O)O; Cit = NC(=O)NCCC[C@H](N)C(=O)O; Nle = CCCC[C@H](N)C(=O)O; Orn = NCCC[C@H](N)C(=O)O; Dab = NCC[C@H](N)C(=O)O; Dap = NC[C@H](N)C(=O)O

What follows are binders tested against human melanocortin-1 receptor hMCR-1 expressed by the human melanoma cell line HBL (human, UniProt Q01726 1-317) (assay: cell-based or functional assay).
Sequence of human melanocortin-1 receptor hMCR-1 expressed by the human melanoma cell line HBL (Q01726 whole entry): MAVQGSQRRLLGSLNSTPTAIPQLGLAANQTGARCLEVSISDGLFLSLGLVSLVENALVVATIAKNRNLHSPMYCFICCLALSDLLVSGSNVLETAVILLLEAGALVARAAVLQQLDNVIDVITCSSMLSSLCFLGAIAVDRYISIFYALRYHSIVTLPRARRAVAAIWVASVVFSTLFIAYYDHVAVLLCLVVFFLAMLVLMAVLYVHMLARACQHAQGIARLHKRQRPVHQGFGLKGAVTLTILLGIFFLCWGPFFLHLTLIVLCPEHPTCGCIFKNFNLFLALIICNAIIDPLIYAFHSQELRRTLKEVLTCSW

Binder	MC-1 Emax (average; cAMP HBL) [%]	MC-1 EC50 (average; cAMP HBL) [nM]
Ac-[Nle]EH[dF]R[Dab][2Nal]-NH2 (lactam 2-6) [Ac-Nle-cyclo(Glu-His-D-Phe-Arg-Dab)-Nal 2-NH2]	83	–
Ac-[Nle]EH[dF]R[Dab][d1Nal]-NH2 (lactam 2-6) [Ac-Nle-cyclo(Glu-His-D-Phe-Arg-Dab)-D-Nal 1-NH2]	73	–
Ac-[dF]EH[dF]R[Dab]W-NH2 (lactam 2-6) [Ac-D-Phe-cyclo(Glu-His-D-Phe-Arg-Dab)-Trp-NH2]	75	–
Ac-[Nle]EH[dF]A[Dab]-NH2 (lactam 2-6; SMILES CCCC[C@H](NC(C)=O)C(=O)N[C@H]1CCC(=O)NCC[C@@H](C(N)=O)NC(=O)[C@H](C)NC(=O)[C@@H](Cc2ccccc2)NC(=O)[C@H](Cc2c[nH]cn2)NC1=O) [Ac-Nle-cyclo(Glu-His-D-Phe-Ala-Dab)-NH2]	73	44
Ac-[Nle]EH[dF]R[Dab][dW]-NH2 (lactam 2-6) [Ac-Nle-cyclo(Glu-His-D-Phe-Arg-Dab)-D-Trp-NH2]	93	–
Ac-[Nle]EH[dF]R[Dap]W-OH (lactam 2-6) [Ac-Nle-cyclo(Glu-His-D-Phe-Arg-Dap)-Trp-OH]	81	0.107
Ac-[Nle]E[Orn][dPhe(3,4-F)]R[Dab]-NH2 (lactam 2-6) [Ac-Nle-cyclo(Glu-Orn-D-Phe(3,4-F)-Arg-Dab)-NH2]	97	1
Ac-[Nle]EH[dF]R[Dab][d2Nal]-NH2 (lactam 2-6) [Ac-Nle-cyclo(Glu-His-D-Phe-Arg-Dab)-Nal 2-NH2 (SEQ ID NO: 14)]	69	–
Ac-[Nle]EP[dF]R[Dab]-NH2 (lactam 2-6) [Ac-Nle-cyclo(Glu-Pro-D-Phe-Arg-Dab)-NH2]	102	–
Ac-[Nle]E[Orn][dPhe(4-F)]R[Dab]-NH2 (lactam 2-6; SMILES CCCC[C@H](NC(C)=O)C(=O)N[C@H]1CCC(=O)NCC[C@@H](C(N)=O)NC(=O)[C@H](CCCNC(=N)N)NC(=O)[C@@H](Cc2ccc(F)cc2)NC(=O)[C@H](CCCN)NC1=O) [Ac-Nle-cyclo(Glu-Orn-D-Phe(4-F)-Arg-Dab)-NH2]	102	1
Ac-[Nle]EH[dF]R[Dab]K-NH2 (lactam 2-6; SMILES CCCC[C@H](NC(C)=O)C(=O)N[C@H]1CCC(=O)NCC[C@@H](C(=O)N[C@@H](CCCCN)C(N)=O)NC(=O)[C@H](CCCNC(=N)N)NC(=O)[C@@H](Cc2ccccc2)NC(=O)[C@H](Cc2c[nH]cn2)NC1=O) [Ac-Nle-cyclo(Glu-His-D-Phe-Arg-Dab)-Lys-NH2 (SEQ ID NO: 55)]	91	0.175
Ac-[Nle][Dab]H[dF]R[Dap]W-NH2 (linker 2-6 via C(:O)‑(CH2)2‑C(:O)) [Ac-Nle-cyclo(Dab-His-D-Phe-Arg-Dap)-Trp-NH2 with bridge C(═O)-(CH2)2-C(═O)]	78	0.006
Ac-[Nle]E[Orn][dF]R[Dab]W-NH2 (lactam 2-6) [Ac-Nle-cyclo(Glu-Orn-D-Phe-Arg-Dab)-Trp-NH2 (SEQ ID NO: 58)]	109	–
Ac-[Nle]EH[dF]R[Dab]W-NH2 (lactam 2-6) [Ac-Nle-cyclo(Glu-His-D-Phe-Arg-Dab)-Trp-NH2]	95	–
Ac-[Nle]E[Orn][dPhe(2-F)]R[Dab]-NH2 (lactam 2-6; SMILES CCCC[C@H](NC(C)=O)C(=O)N[C@H]1CCC(=O)NCC[C@@H](C(N)=O)NC(=O)[C@H](CCCNC(=N)N)NC(=O)[C@@H](Cc2ccccc2F)NC(=O)[C@H](CCCN)NC1=O) [Ac-Nle-cyclo(Glu-Orn-D-Phe(2-F)-Arg-Dab)-NH2]	95	0.8
Ac-[Nle]E[Orn][dF]R[Dab]-NH2 (lactam 2-6; SMILES CCCC[C@H](NC(C)=O)C(=O)N[C@H]1CCC(=O)NCC[C@@H](C(N)=O)NC(=O)[C@H](CCCNC(=N)N)NC(=O)[C@@H](Cc2ccccc2)NC(=O)[C@H](CCCN)NC1=O) [Ac-Nle-cyclo(Glu-Orn-D-Phe-Arg-Dab)-NH2]	102	0.5
Ac-[Nle]EH[dF]R[Dap]W-NH2 (lactam 2-6) [Ac-Nle-cyclo(Glu-His-D-Phe-Arg-Dap)-Trp-NH2]	91	–
Ac-[Nle]E[Orn][dPhe(4-OMe)]R[Dab]-NH2 (lactam 2-6) [Ac-Nle-cyclo(Glu-Orn-D-Phe(4-OMe)-Arg-Dab)-NH2]	99	0.12
Ac-[Nle]EP[dF]R[Dab]W-NH2 (lactam 2-6; SMILES CCCC[C@H](NC(C)=O)C(=O)N[C@H]1CCC(=O)NCC[C@@H](C(=O)N[C@@H](Cc2c[nH]c3ccccc23)C(N)=O)NC(=O)[C@H](CCCNC(=N)N)NC(=O)[C@@H](Cc2ccccc2)NC(=O)[C@@H]2CCCN2C1=O) [Ac-Nle-cyclo(Glu-Pro-D-Phe-Arg-Dab)-Trp-NH2]	97	0.18

Second part, the binder after the results:

MC-1 Emax (average; cAMP HBL) [%]	MC-1 EC50 (average; cAMP HBL) [nM]	Binder
79	–	Ac-[Nle]EH[dF]R[Dab]W-OH (lactam 2-6; SMILES CCCC[C@H](NC(C)=O)C(=O)N[C@H]1CCC(=O)NCC[C@@H](C(=O)N[C@@H](Cc2c[nH]c3ccccc23)C(=O)O)NC(=O)[C@H](CCCNC(=N)N)NC(=O)[C@@H](Cc2ccccc2)NC(=O)[C@H](Cc2c[nH]cn2)NC1=O) [Ac-Nle-cyclo(Glu-His-D-Phe-Arg-Dab)-Trp-OH]
92	–	Ac-[Nle][Dab]H[dF]R[Dab]W-NH2 (linker 2-6 via C(:O)‑(CH2)2‑C(:O)) [Ac-Nle-cyclo(Dab-His-D-Phe-Arg-Dab)-Trp-NH2 with bridge C(═O)-(CH2)2-C(═O)]
88	1	Ac-[Nle]E[Orn][dPhe(2-Cl)]R[Dab]-NH2 (lactam 2-6; SMILES CCCC[C@H](NC(C)=O)C(=O)N[C@H]1CCC(=O)NCC[C@@H](C(N)=O)NC(=O)[C@H](CCCNC(=N)N)NC(=O)[C@@H](Cc2ccccc2Cl)NC(=O)[C@H](CCCN)NC1=O) [Ac-Nle-cyclo(Glu-Orn-D-Phe(2-Cl)-Arg-Dab)-NH2]
85	0.32	Ac-[Nle]EH[dF]R[Dab]-NH2 (lactam 2-6; SMILES CCCC[C@H](NC(C)=O)C(=O)N[C@H]1CCC(=O)NCC[C@@H](C(N)=O)NC(=O)[C@H](CCCNC(=N)N)NC(=O)[C@@H](Cc2ccccc2)NC(=O)[C@H](Cc2c[nH]cn2)NC1=O) [Ac-Nle-cyclo(Glu-His-D-Phe-Arg-Dab)-NH2]
72	–	Ac-[Nle]EH[dF]R[Dab][1Nal]-NH2 (lactam 2-6) [Ac-Nle-cyclo(Glu-His-D-Phe-Arg-Dab)-Nal 1-NH2]
100	0.1	Ac-[Nle]E[Orn][dPhe(4-Cl)]R[Dab]-NH2 (lactam 2-6; SMILES CCCC[C@H](NC(C)=O)C(=O)N[C@H]1CCC(=O)NCC[C@@H](C(N)=O)NC(=O)[C@H](CCCNC(=N)N)NC(=O)[C@@H](Cc2ccc(Cl)cc2)NC(=O)[C@H](CCCN)NC1=O) [Ac-Nle-cyclo(Glu-Orn-D-Phe(4-Cl)-Arg-Dab)-NH2]
108	–	Ac-[Nle]EK[dF]R[Dab]W-NH2 (lactam 2-6) [Ac-Nle-cyclo(Glu-Lys-D-Phe-Arg-Dab)-Trp-NH2 (SEQ ID NO: 56)]
97	0.008	Ac-[Nle]EH[dF]R[Dab]A-NH2 (lactam 2-6; SMILES CCCC[C@H](NC(C)=O)C(=O)N[C@H]1CCC(=O)NCC[C@@H](C(=O)N[C@@H](C)C(N)=O)NC(=O)[C@H](CCCNC(=N)N)NC(=O)[C@@H](Cc2ccccc2)NC(=O)[C@H](Cc2c[nH]cn2)NC1=O) [Ac-Nle-cyclo(Glu-His-D-Phe-Arg-Dab)-Ala-NH2]
70	0.007	Ac-[Nle][Dap]H[dF]R[Dap]W-NH2 (linker 2-6 via C(:O)‑(CH2)2‑C(:O)) [Ac-Nle-cyclo(Dap-His-D-Phe-Arg-Dap)-Trp-NH2 with bridge C(═O)-(CH2)2-C(═O)]
108	–	Ac-[Nle]E[Dab][dF]R[Dab]W-NH2 (lactam 2-6) [Ac-Nle-cyclo(Glu-Dab-D-Phe-Arg-Dab)-Trp-NH2 (SEQ ID NO: 57)]
97	–	Ac-[Nle]E[Cit][dF]R[Dab]W-NH2 (lactam 2-6) [Ac-Nle-cyclo(Glu-Cit-D-Phe-Arg-Dab)-Trp-NH2 (SEQ ID NO: 54)]
59	4	Ac-[Nle]EH[dF]G[Dab]W-NH2 (lactam 2-6; SMILES CCCC[C@H](NC(C)=O)C(=O)N[C@H]1CCC(=O)NCC[C@@H](C(=O)N[C@@H](Cc2c[nH]c3ccccc23)C(N)=O)NC(=O)CNC(=O)[C@@H](Cc2ccccc2)NC(=O)[C@H](Cc2c[nH]cn2)NC1=O) [Ac-Nle-cyclo(Glu-His-D-Phe-Gly-Dab)-Trp-NH2]
96	0.076	Ac-[Nle]E[Orn][dPhe(4-Me)]R[Dab]-NH2 (lactam 2-6; SMILES CCCC[C@H](NC(C)=O)C(=O)N[C@H]1CCC(=O)NCC[C@@H](C(N)=O)NC(=O)[C@H](CCCNC(=N)N)NC(=O)[C@@H](Cc2ccc(C)cc2)NC(=O)[C@H](CCCN)NC1=O) [Ac-Nle-cyclo(Glu-Orn-D-Phe(4-Me)-Arg-Dab)-NH2]
86	2	Ac-[Nle]E[Orn][dPhe(3-Cl)]R[Dab]-NH2 (lactam 2-6; SMILES CCCC[C@H](NC(C)=O)C(=O)N[C@H]1CCC(=O)NCC[C@@H](C(N)=O)NC(=O)[C@H](CCCNC(=N)N)NC(=O)[C@@H](Cc2cccc(Cl)c2)NC(=O)[C@H](CCCN)NC1=O) [Ac-Nle-cyclo(Glu-Orn-D-Phe(3-Cl)-Arg-Dab)-NH2]
91	–	Ac-[Nle]EH[dF]R[Orn]W-NH2 (lactam 2-6) [Ac-Nle-cyclo(Glu-His-D-Phe-Arg-Orn)-Trp-NH2]
